Values of other authors, collected in publication PMC6515277.
Where two headings read alike, the source gives them in different places.

Legend:
[1] = biological target: merlin CTD CTD (Homo sapiens) (UniProt P35240); assay: ITC
[2] = biological target: merlin CTD CTD (Homo sapiens) (UniProt P35240); assay: ITC; remark: listed apart in the source

Substance: merlin FERM FERM (from UniProt P35240)
- Kd [1]: 4 µM
- Kd [2]: 4 µM
